# Measured values from PMC10576128.
# Like-named read-outs stand apart in the source and are kept apart here.
# B1: prothymosin α (unlabeled) (natural protein)
# chain: MSDAAVDTSSEITTKDLKEKKEVVEEAENGRDAPANGNAENEENGEQEADNEVDEEEEEGGEEEEEEEEGDGEEEDGDEDEEAESATGKRAAEDDEDDDVDTKKQKTDEDD
# Legend:
# [1] = biological target: ProTα-H1 dimer (PH) of labeled ProTα E56C/D110C and unlabeled H1 (human) (UniProt P06454); experiment: FRET or BRET
# [2] = biological target: ProTα E56C/D110C labeled with Alexa Fluors 488 and 594 (human) (UniProt P06454); experiment: FRET or BRET
# [3] = biological target: prothymosin α (unlabeled) (human) (UniProt P06454); experiment: ITC
# [4] = biological target: ProTα-H1 dimer (PH) of labeled ProTα E56C/D110C and unlabeled H1 (human) (UniProt P06454); experiment: FRET or BRET; remark: listed apart in the source
# [5] = biological target: ProTα E56C/D110C labeled with Alexa Fluors 488 and 594 (human) (UniProt P06454); experiment: FRET or BRET; remark: listed apart in the source
# [6] = biological target: prothymosin α (unlabeled) (human) (UniProt P06454); experiment: ITC; remark: listed apart in the source
# [7] = biological target: ProTα-H1 dimer (PH) of unlabeled ProTα and unlabeled H1 (human) (UniProt P06454); experiment: FRET or BRET
Molecule,Kd [1] [µM],Kd [2] [nM],dH [3] [kJ/mol],Kd [4] [nM],Kd [5] [nM],dH [6] [kJ/mol],Kd [7] [nM]
linker histone H1 (from UniProt P07305 1-194) (natural protein),13,1.2,58,120,0.92,35,
B1,,,,,,,3000
